What was measured:
hDicer PPC cassette = biological target: T1, hDicer PPC cassette (Homo sapiens, UniProt Q9UPY3 753-1068); experiment: EMSA; EMSA: 20 mM Tris-HCl pH 7.4, 100 mM KCl, 30 min on ice; 5% or 10% native PAGE at 4 C in 1x TBE; G-rich oligos folded in 50 mM KCl; settings: protein: recombinant, tags: N-terminal 6xHis (pMCSG7), label: 5'-32P
T1 sequence: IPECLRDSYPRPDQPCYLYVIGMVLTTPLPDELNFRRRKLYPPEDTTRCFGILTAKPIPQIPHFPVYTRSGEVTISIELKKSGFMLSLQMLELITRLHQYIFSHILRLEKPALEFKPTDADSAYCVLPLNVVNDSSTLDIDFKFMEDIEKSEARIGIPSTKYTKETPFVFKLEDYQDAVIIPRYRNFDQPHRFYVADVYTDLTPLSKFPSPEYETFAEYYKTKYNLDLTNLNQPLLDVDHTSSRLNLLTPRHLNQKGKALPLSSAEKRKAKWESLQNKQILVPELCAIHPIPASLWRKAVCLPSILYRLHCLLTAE

hDicer [1] = biological target: T2, hDicer (Homo sapiens, UniProt Q9UPY3 1-1922); experiment: EMSA; 100, 250 nM hDicer; EMSA: 20 mM Tris-HCl pH 7.4, 100 mM KCl, 30 min on ice; 5% or 10% native PAGE at 4 C in 1x TBE; G-rich oligos folded in 50 mM KCl; settings: protein: recombinant; label: 5'-32P; G4
hDicer [2] = biological target: T2, hDicer; experiment: EMSA; 250 nM hDicer; EMSA: 20 mM Tris-HCl pH 7.4, 100 mM KCl, 30 min on ice; 5% or 10% native PAGE at 4 C in 1x TBE; G-rich oligos folded in 50 mM KCl; settings: protein: recombinant; label: 5'-32P; G4 dimer of bimolecular G-quadruplexes (PDB 2M18)

T2 sequence (Q9UPY3 whole entry): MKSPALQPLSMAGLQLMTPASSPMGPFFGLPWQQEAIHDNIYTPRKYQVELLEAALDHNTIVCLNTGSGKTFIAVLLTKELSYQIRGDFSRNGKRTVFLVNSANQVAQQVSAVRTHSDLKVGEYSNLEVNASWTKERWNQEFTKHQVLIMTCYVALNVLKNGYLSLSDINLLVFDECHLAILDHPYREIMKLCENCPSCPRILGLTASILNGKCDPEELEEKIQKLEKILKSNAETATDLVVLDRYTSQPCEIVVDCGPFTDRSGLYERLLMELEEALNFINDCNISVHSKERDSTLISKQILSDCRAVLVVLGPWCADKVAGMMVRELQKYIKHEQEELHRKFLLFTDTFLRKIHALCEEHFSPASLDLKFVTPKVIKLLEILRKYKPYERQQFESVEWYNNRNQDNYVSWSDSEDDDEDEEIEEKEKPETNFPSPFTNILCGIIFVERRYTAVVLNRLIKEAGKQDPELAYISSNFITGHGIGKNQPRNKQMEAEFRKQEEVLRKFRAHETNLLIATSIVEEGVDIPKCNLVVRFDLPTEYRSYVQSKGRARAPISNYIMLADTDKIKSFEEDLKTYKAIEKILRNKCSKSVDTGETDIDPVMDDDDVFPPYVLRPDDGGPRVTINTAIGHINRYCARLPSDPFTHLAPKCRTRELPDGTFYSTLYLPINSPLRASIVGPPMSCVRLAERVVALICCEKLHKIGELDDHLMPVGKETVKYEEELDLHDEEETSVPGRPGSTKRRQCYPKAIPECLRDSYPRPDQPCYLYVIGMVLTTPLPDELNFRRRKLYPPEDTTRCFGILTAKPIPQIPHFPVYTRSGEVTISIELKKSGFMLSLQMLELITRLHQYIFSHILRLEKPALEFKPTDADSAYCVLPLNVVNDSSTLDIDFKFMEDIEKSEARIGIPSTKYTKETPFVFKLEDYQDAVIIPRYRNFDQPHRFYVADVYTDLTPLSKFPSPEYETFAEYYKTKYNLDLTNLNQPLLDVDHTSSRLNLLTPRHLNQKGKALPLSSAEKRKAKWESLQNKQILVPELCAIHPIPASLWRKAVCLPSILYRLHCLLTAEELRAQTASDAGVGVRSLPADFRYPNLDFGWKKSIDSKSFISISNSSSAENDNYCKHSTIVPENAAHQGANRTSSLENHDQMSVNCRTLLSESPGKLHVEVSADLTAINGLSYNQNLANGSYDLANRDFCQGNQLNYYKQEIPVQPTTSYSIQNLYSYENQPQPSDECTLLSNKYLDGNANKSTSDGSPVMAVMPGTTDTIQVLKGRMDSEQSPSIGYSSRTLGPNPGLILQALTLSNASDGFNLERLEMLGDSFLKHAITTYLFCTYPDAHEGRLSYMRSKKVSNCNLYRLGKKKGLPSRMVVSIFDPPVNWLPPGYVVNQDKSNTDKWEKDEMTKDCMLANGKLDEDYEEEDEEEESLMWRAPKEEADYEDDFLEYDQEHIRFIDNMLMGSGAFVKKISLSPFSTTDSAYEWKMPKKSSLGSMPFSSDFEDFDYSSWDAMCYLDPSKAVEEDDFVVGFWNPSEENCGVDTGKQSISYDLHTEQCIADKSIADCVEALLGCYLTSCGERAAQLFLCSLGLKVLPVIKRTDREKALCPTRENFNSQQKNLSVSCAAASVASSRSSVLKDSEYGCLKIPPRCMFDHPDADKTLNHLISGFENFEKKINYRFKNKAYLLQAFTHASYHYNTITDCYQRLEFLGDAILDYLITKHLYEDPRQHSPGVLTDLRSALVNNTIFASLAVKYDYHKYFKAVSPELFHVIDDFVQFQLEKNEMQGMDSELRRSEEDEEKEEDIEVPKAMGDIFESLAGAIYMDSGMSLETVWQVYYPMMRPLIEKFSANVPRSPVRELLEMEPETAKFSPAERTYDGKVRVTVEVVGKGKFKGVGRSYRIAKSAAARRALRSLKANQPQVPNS

B1: pre-mir-21 (structured_RNA)
RNA: AGCUUAUCAGACUGAUGUUGACUGUUGAAUCUCAUGGCAACACCAGUCGAUGGGCUGU
Question: Which Kd (hDicer PPC cassette; hairpin) does the source give for B1 here?
Answer: ~205 nM

Question: Which Kd (hDicer PPC cassette; G4) does the source give for GGGGUUUUGGGG (structured_RNA) [G4U4G4] here?
Answer: ~10 nM

Question: For GGGGTTTTGGGG (structured_DNA) [G4T4G4], which Kd (hDicer PPC cassette; G4 bimolecular, 2 strand copies (PDB 1JPQ)) is on record?
Answer: ~369 nM

Question: Does GGAGGUUUUGGAGG (structured_RNA) [QU14] bind (hDicer [1])?
Answer: binds

Question: Does GGGUUAGGGU (structured_RNA) [TER10] bind (hDicer [2])?
Answer: binds

Question: How did the Kd (hDicer PPC cassette) turn out when UCGAAGUAUUCCGCGUACGUG (ssRNA) [LIN21] was run?
Answer: ~46 nM
